Assay results from patent US20220064312A1 (SHIONOGI, published 2022).
Numbering of substitutions follows the chain as printed. Names may count otherwise. Read-outs that look alike come from different tables or passages of the source.

B1: 2C7 (antibody, V domains shown)
VH: QVQLKQSGPSLVQPSQSLSITCTVSGFSLTAYGVHWIRQSPGKGQEWLGVIWRGGSTDYNAAFMSRLTITKDNSKSQVFFKMNSLQADDTAIYYCAKKGGSYAMDYWGQGTSVTVSS
VL: DVVLTQTPLSLPVSLGGQASISCRSSQSLVHSNGNTYLHWYLQKPGQSPKLLIYKVSNRFSGVPDRFSGSGSGTDFTLKISRVEAEDLGVYFCSQSTQVPLTFGAGTKLELKR
notes: mouse hybridoma antibody
B2: h19D7 (IGKV2-18/IGHV3-73) (antibody, V domains shown)
VH: EVQLVESGGGLVQPGGSLKLSCAASGFTFSTYAMYWVRQASGKGLEWVGRIRSKSNNYATYYADSVKDRFTISRDDSKNTAYLQMNSLKTEDTAVYYCTRGGYGNYRYAMDYWGQGTTVTVSS
VL: DIVMTQTPPSLPVNPGEPASISCRSSKSLLHSNGNTYLYWYLQKPGQSPQLLIYRVSNLASGVPDRFSGSGSGSDFTLKISWVEAEDVGVYYCMQHLEYPFTFGQGTKLEIK
B3: 27G1 (antibody, V domains shown)
VH: EVQLVESGGRLVQPKGSLKLSCAASGFAFNTYAMYWIRQAPGKGLEWVARIRSKSNNYATYYADSVKDRFTISRDDSQSMLYLQMNNLKTEDTAMYYCVRARFYYSDYGYAMDYWGQGTSVTVSS
VL: DIVMTQAAPSVPVTPGESVSISCRSSKSLLHSNGNTYLYWFLQRPGQSPQLLIYRMSNLASGVPDRFSGSGSGTAFTLRISRVEAEDVGVYYCMQHLEYPLTFGAGTKLELKR
notes: mouse hybridoma antibody
B4: 8F7 (antibody, V domains shown)
VH: EVQLVESGGRLVQPKRSLKLSCAASGFTFNPYAMYWIRQAPGQGLEWVARIRSKSNNYATYYADSVKDRFTISRDDSQSMLYLQMNNLKTEDTAMYYCVRGHQGTMDYWGQGTSVTVSS
VL: B3 VL with I53T, L101F, A105G, L111I
notes: mouse hybridoma antibody
B5: 10A11 (antibody, V domains shown)
VH: B3 VH with M34L
VL: B3 VL
notes: mouse hybridoma antibody; also called m10A11; clone No. 10A11
B6: h10A11 (IGKV4-1/IGHV3-15 T94R) (antibody, V domains shown)
VH: EVQLVESGGALVKPGGSLRLSCAASGFTFSTYALYWVRQAPGKGLEWVGRIRSKSNNYATYYADSVKDRFTISRDDSKNTLYLQMNSLKTEDTAVYYCTRARFYYSDYGYAMDYWGQGTLVTVSS
VL: DIVMTQSPDSLAVSLGERATINCRSSKSLLHSNGNTYLYWYQQKPGQPPKLLIYRMSNLASGVPDRFSGSGSGTDFTLTISSLQAEDVAVYYCMQHLEYPLTFGQGTKLEIKR
notes: humanized; detected with anti-human IgG; also called humanized 10A11 antibody (light chain variable region: IGKV4-1/heavy chain variable region: IGHV3-15 T94R)
B7: h10A11 (IGKV4-1/IGHV3-73) (antibody, V domains shown)
VH: B6 VH with A10G, K13Q, R19K, T28A, S30N, P41S, L81A
VL: B6 VL

Assays:
loop2 hCCR4-hCCR8 [1] = target: T1, loop2 hCCR4-hCCR8 (human, UniProt P51685 1-355); assay: flow cytometry, transfected Expi293 cells; Δ = significantly reduced vs hCCR8
T1 construct: chimera on Expi293 cells; hCCR8 ranges derived; also called loop2-human CCR4-substituted human CCR8

human CCR8 [2] = target: T2, human CCR8 (human, UniProt P51685 1-355); assay: cell-based or functional assay
T2 sequence (P51685 whole entry): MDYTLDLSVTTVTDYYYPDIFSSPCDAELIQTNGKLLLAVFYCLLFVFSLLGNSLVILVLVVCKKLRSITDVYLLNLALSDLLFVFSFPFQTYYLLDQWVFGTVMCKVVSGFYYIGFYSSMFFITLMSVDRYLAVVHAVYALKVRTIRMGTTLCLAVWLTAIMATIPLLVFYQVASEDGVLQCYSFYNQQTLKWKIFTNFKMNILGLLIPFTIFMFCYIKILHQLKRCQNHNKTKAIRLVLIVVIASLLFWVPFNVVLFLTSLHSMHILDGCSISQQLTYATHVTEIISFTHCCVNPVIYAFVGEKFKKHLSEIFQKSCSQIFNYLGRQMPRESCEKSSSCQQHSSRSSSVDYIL

human CCR4 = target: T3, human CCR4 (human, UniProt P51679 1-360); assay: flow cytometry, transfected Expi293 cells
T3 construct: also called hCCR4
T3 sequence: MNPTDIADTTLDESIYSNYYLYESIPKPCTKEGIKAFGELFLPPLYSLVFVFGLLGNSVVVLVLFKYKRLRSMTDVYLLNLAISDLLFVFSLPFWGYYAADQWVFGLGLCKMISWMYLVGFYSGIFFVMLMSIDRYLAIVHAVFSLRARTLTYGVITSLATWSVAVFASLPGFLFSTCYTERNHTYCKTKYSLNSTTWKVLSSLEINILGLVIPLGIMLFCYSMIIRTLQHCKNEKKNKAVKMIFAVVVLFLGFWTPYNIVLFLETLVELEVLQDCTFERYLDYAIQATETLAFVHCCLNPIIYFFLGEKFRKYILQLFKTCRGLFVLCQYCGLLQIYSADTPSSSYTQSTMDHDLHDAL

loop1 hCCR4-hCCR8 [3] = target: T4, loop1 hCCR4-hCCR8 (human, UniProt P51685 1-355); assay: flow cytometry, transfected Expi293 cells
T4 construct: chimera on Expi293 cells; hCCR8 ranges derived; also called loop 1-human CCR4-substituted human CCR8

hCCR8 (Y17A) = hCCR8 (Y17A) (human, UniProt P51685 1-355); assay: flow cytometry, transfected Expi293 cells
Sequence of hCCR8 (Y17A) (P51685 whole entry Y17A): as the sequence (P51685 whole entry) above, with Y17A counted along it

mouse CCR8 = target: T5, mouse CCR8 (mouse, UniProt P56484 1-353); assay: flow cytometry, transfected Expi293 cells
T5 construct: also called mCCR8
T5 sequence: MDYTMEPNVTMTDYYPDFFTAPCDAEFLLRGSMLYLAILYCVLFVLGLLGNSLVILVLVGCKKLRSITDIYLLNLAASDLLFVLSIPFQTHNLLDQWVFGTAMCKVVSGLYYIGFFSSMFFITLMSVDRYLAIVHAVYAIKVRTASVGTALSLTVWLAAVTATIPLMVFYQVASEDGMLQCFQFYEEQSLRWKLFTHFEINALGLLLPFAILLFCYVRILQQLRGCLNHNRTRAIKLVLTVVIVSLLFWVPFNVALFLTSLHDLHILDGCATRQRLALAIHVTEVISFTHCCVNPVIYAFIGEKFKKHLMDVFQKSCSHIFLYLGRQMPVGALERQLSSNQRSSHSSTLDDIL

N-ter hCCR4-hCCR8 = target: T6, N-ter hCCR4-hCCR8 (human); assay: flow cytometry, transfected Expi293 cells
T6 construct: chimera on Expi293 cells; remaining hCCR8 ranges derived from the stated swapped ranges and the 355-residue length; also called N-terminal region human CCR4-substituted human CCR8
T6 chain: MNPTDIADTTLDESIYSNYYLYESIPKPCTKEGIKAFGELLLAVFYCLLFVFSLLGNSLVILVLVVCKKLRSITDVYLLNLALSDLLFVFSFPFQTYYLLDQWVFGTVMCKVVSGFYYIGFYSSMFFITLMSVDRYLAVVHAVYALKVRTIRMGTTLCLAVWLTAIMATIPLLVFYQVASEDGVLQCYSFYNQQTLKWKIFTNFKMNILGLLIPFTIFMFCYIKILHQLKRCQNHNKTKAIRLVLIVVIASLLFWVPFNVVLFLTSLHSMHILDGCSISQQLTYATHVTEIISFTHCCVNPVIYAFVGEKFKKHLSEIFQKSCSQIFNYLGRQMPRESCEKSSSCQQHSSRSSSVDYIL

human CCR8 [4] = target: T2, human CCR8; assay: cell-based or functional assay; remark: listed apart in the source
human CCR8 [5] = target: T2, human CCR8; assay: cell-based or functional assay; remark: listed apart in the source
loop1 hCCR4-hCCR8 [6] = target: T4, loop1 hCCR4-hCCR8; assay: flow cytometry, transfected Expi293 cells; Δ = significantly reduced vs hCCR8
human CCR8 [7] = target: T2, human CCR8; assay: cell-based or functional assay; remark: listed apart in the source
hCCR8 (L181A) = hCCR8 (L181A) (human, UniProt P51685 1-355); assay: flow cytometry, transfected Expi293 cells
Description: (§1) In addition to the chimeras of human CCR4 and the point mutants at the N-terminal region of human CCR8 produced in Example 3, binding evaluation was also performed for point mutants at loop1 and loop2 regions of human CCR8. […] After reacting at room temperature for 3 hours, it was reacted with Alexa488-labeled Anti-human IgG antibody (Thermo Fisher Scientific) and flow cytometry analysis was performed.
(§2) In comparison to human CCR8, a mutant having binding activity of 70% or less was indicated as Δ and a mutant having binding activity of 20% or less was indicated as x.

loop2 hCCR4-hCCR8 [8] = target: T1, loop2 hCCR4-hCCR8; assay: flow cytometry, transfected Expi293 cells
Description: as §1, §2

hCCR8 (V180A) = hCCR8 (V180A) (human, UniProt P51685 1-355); assay: flow cytometry, transfected Expi293 cells
Description: as §1, §2

hCCR8 (T32A) = target: T7, hCCR8 (T32A) (human, UniProt P51685 1-355); assay: flow cytometry, transfected Expi293 cells
T7 construct: also called hCCR8 (132A)
Description: as §1, §2

hCCR8 (L5A) = target: T8, hCCR8 (L5A) (human, UniProt P51685 1-355); assay: flow cytometry, transfected Expi293 cells
T8 construct: also called hCCR8 (LSA)
Description: as §1, §2

loop1 hCCR4-hCCR8 [9] = target: T4, loop1 hCCR4-hCCR8; assay: flow cytometry, transfected Expi293 cells; remark: listed apart in the source
Description: as §1, §2

hCCR8 (K35A) = hCCR8 (K35A) (human, UniProt P51685 1-355); assay: flow cytometry, transfected Expi293 cells
Description: as §1, §2

hCCR8 (D97A) = hCCR8 (D97A) (human, UniProt P51685 1-355); assay: flow cytometry, transfected Expi293 cells
Description: as §1, §2

hCCR8 (I20A) = target: T9, hCCR8 (I20A) (human, UniProt P51685 1-355); assay: flow cytometry, transfected Expi293 cells
T9 construct: also called hCCR8 (120A)
Description: as §1, §2

hCCR8 (N188A) = hCCR8 (N188A) (human, UniProt P51685 1-355); assay: flow cytometry, transfected Expi293 cells
Description: as §1, §2

hCCR8 (S22A) = hCCR8 (S22A) (human, UniProt P51685 1-355); assay: flow cytometry, transfected Expi293 cells
Description: as §1, §2

human CCR8 [10] = target: T2, human CCR8; assay: cell-based or functional assay; remark: listed apart in the source
human CCR8 [11] = target: T2, human CCR8; assay: cell-based or functional assay; remark: listed apart in the source

Binder | binding result (loop2 hCCR4-hCCR8 [1]) | Neutralizing Activity IC50 (nM), Ca2+ influx by 100 nM hCCL1 (human CCR8 [2]) [nM] | binding result (human CCR4) | binding result (hCCR8 (Y17A)) | binding result (mouse CCR8) | binding result (N-ter hCCR4-hCCR8) | IC50 (nM), Ca2+ influx by 200 nM hCCL1 (human CCR8 [4]) [nM] | IC50 (nM), Ca2+ influx by 200 nM hCCL1 (human CCR8 [7]) [nM] | further results
B1 | binds | 0.4 | no binding | no binding | no binding | no binding | 1.19 | – | binding result (loop1 hCCR4-hCCR8 [3]): no binding
B2 | – | – | – | – | – | – | – | – | IC50 (nM), Ca2+ influx by 200 nM hCCL1 (human CCR8 [5]): 0.46 nM
B3 | binds | 0.09 | no binding | no binding | no binding | no binding | – | – | binding result (loop1 hCCR4-hCCR8 [6]): binds
B4 | binds | 1.56 | no binding | no binding | no binding | no binding | 3.03 | – | binding result (loop1 hCCR4-hCCR8 [3]): no binding
B5 | binds | 0.08 | no binding | no binding | no binding | no binding | 0.23 | 0.23 | binding result (loop1 hCCR4-hCCR8 [6]): binds
B6 | – | – | – | – | – | – | – | 0.15 | binding activity in comparison to human CCR8 (hCCR8 (L181A)): ≤ 70%; binding activity in comparison to human CCR8 (loop2 hCCR4-hCCR8 [8]): ≤ 70%; binding activity in comparison to human CCR8 (hCCR8 (V180A)): ≤ 70%; binding activity in comparison to human CCR8 (hCCR8 (T32A)): ≤ 70%; binding activity in comparison to human CCR8 (hCCR8 (L5A)): ≤ 70%; binding activity in comparison to human CCR8 (loop1 hCCR4-hCCR8 [9]): ≤ 70%; binding activity in comparison to human CCR8 (hCCR8 (K35A)): ≤ 70%; binding activity in comparison to human CCR8 (hCCR8 (D97A)): ≤ 70%; binding activity in comparison to human CCR8 (hCCR8 (I20A)): ≤ 70%; binding activity in comparison to human CCR8 (hCCR8 (N188A)): ≤ 70%; binding activity in comparison to human CCR8 (hCCR8 (S22A)): ≤ 70%; IC50 ratio (WT IC50/mutant IC50) (human CCR8 [10]): 1 ratio
B7 | – | – | – | – | – | – | – | 0.17 | IC50 ratio (WT IC50/mutant IC50) (human CCR8 [11]): 1 ratio
